Assay results reported in article doi:10.1101/2020.06.24.169185 (bioRxiv, 2020).

B1: mCherry-Nanog (natural protein, UniProt Q80Z64 1-305, looked up)
chain: MSVGLPGPHSLPSSEEASNSGNASSMPAVFHPENYSCLQGSATEMLCTEAASPRPSSEDLPLQGSPDSSTSPKQKLSSPEADKGPEEEENKVLARKQKMRTVFSQAQLCALKDRFQKQKYLSLQQMQELSSILNLSYKQVKTWFQNQRMKCKRWQKNQWLKTSNGLIQKGSAPVEYPSIHCSYPQGYLVNASGSLSMWGSQTWTNPTWSSQTWTNPTWNNQTWTNPTWSSQAWTAQSWNGQPWNAAPLHNFGEDFLQPYVQLQQNFSASDLEVNLEATRESHAHFSTPQALELFLNYSVTPPGEI

Tests used:
mCherry-Nanog = target: B1; experiment: fluorescence cross-correlation spectroscopy
[1] = target: the molecule itself; experiment: fluorescence correlation spectroscopy
[2] = target: the molecule itself; experiment: fluorescence correlation spectroscopy; remark: listed apart in the source
[3] = target: the molecule itself; experiment: fluorescence correlation spectroscopy; remark: listed apart in the source

complex % (mCherry-Nanog) [%]	Binder	stoichiometry N [1]	GFP-Nanog/GFP brightness ratio [2]	mCherry-Nanog/mCherry brightness ratio [3]
26.1	GFP-Sox2 (natural protein) not shown	–	–	–
19.8	GFP-Nanog (natural protein, UniProt Q80Z64 1-305, looked up) MSVGLPGPHSLPSSEEASNSGNASSMPAVFHPENYSCLQGSATEMLCTEAASPRPSSEDLPLQGSPDSSTSPKQKLSSPEADKGPEEEENKVLARKQKMRTVFSQAQLCALKDRFQKQKYLSLQQMQELSSILNLSYKQVKTWFQNQRMKCKRWQKNQWLKTSNGLIQKGSAPVEYPSIHCSYPQGYLVNASGSLSMWGSQTWTNPTWSSQTWTNPTWNNQTWTNPTWSSQAWTAQSWNGQPWNAAPLHNFGEDFLQPYVQLQQNFSASDLEVNLEATRESHAHFSTPQALELFLNYSVTPPGEI	2	~1.5	–
–	B1	–	–	~2
